The results in this text go back to US20240261333A1 (published 2024).

The target of one test is RPS3A (human, UniProt P61247 2-264). In words: co-IP/MS, anti-FLAG IP of N-FLAG B3GNT2 cell lysate. On the procedure:
(§1) Cells were plated in 10-cm cell culture dishes and grown to 60-80% confluency. For each condition, two biological replicates were harvested for co-IP. Cells were washed with PBS and 4 mL of lysis buffer (20 mM HEPES, 1% Triton X-100, 150 mM NaCl, 1 mM EDTA, and 10% glycerol) containing protease inhibitor cocktail was added. Cells were scraped and lysate was incubated at 4° C. under rotary agitation for 1 h. Lysate was centrifuged at 14,000×g for 10 min at 4° C. Supernatant was transferred to a new tube and an aliquot was taken as the input. […] For Western blots, 10 μg/mL Chicken Anti-FLAG (Aves labs ET-DY100) and IgY control (R&D Systems AB-101-C) antibodies were biotinylated (Thermo Fisher Scientific 90407) and added to the respective conditions. Lysates with antibodies were incubated at 4° C. under rotary agitation overnight. For each mL of lysate, 50 μL of Pierce Protein A/G Magnetic Beads (Mass spectrometry; Thermo Fisher Scientific 88803) or Pierce Streptavidin Magnetic Beads (Western blot; Thermo Fisher Scientific 88817) was washed twice with lysis buffer. Lysates with antibodies were added to the beads and incubated at 4° C. under rotary agitation for 4 h. Beads were washed with lysis buffer 3 times and resuspended in lysis buffer for storage.
(§2) Magnetic beads were resuspended in 100 mM Tris pH 7.8, reduced, alkylated and digested with trypsin at 37° ° C. overnight. This solution was subjected to solid phase extraction to concentrate the peptides and remove unwanted reagents followed by injection onto a Shimadzu HPLC with fraction collector. Eight fractions were collected and after concentration were injected on a Waters NanoAcquity HPLC equipped with a self-packed Aeris 3 μm C18 analytical column 0.075 mm by 20 cm, (Phenomenex). Peptides were eluted using standard reverse-phase gradients. The effluent from the column was analyzed using a Thermo Orbitrap Elite mass spectrometer (nanospray configuration) operated in a data dependent manner for 54 minutes. The resulting fragmentation spectra were correlated against the known database using Proteome Discover 1.4 (Thermo Fisher Scientific).

A further test concerns the target RPL14 (human, UniProt P50914 2-215). The test is described as above. On the procedure:
as §1, §2

The next test deals with T1, PRDX2 (human, UniProt P32119 2-198).
T1 construct: also called NP_005800.3
T1 sequence (looked up): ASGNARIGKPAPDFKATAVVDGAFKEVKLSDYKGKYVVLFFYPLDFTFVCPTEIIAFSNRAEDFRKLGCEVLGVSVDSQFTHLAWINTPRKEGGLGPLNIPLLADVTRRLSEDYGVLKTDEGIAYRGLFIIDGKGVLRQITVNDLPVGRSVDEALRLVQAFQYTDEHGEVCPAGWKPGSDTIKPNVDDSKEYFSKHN
The description is as above. As to the method:
as §1, §2

The target in a further test is RPL30 (human, UniProt P62888 1-115). The description is as above. On the procedure: as §1, §2
The target of a further test is T2, PRDX1 (human, UniProt Q06830 2-199).
T2 construct: also called NP_859048.1
T2 sequence (looked up): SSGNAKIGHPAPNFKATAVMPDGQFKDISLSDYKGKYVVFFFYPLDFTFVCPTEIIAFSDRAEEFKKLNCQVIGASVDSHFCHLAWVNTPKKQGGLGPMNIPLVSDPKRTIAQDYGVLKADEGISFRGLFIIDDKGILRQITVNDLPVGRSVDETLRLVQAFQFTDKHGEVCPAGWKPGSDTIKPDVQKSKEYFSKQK
Described as above. On the procedure:
as §1, §2

A further test concerns the target RPS15 (human, UniProt P62841 2-145). The description is as above. On the procedure: as §1, §2
For another test, the target named is RPS9 (human, UniProt P46781 2-194). Described as above. As to the method: as §1, §2
Another test addresses T3, FKBP10 (human, UniProt Q96AY3 27-582).
T3 construct: also called NP_068758.3 (+1)
The test is described as above. On the procedure: as §1, §2

The next test addresses RPL24 (human, UniProt P83731 1-157). The test is described as above. As to the method:
as §1, §2

The next test deals with RPS5 (human, UniProt P46782 1-204). The description is as above. As to the method: as §1, §2
Another test deals with T4, PSMA5 (human, UniProt P28066 1-241).
T4 construct: also called NP_002781.2
T4 sequence (P28066 whole entry): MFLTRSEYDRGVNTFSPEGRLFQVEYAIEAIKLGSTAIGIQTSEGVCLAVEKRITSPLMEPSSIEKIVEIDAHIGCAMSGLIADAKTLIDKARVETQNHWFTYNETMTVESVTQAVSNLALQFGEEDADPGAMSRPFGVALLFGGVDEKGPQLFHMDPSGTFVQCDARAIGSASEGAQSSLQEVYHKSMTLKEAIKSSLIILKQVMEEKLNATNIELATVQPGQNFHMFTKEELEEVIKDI
In words: anti-FLAG co-IP from lysate of C-FLAG B3GNT2 cells, mass spectrometry. As to the method:
as §1, §2

A further test concerns the target T5, PSMC2 (human, UniProt P35998 2-433).
T5 construct: also called NP_002794.1
T5 sequence (looked up): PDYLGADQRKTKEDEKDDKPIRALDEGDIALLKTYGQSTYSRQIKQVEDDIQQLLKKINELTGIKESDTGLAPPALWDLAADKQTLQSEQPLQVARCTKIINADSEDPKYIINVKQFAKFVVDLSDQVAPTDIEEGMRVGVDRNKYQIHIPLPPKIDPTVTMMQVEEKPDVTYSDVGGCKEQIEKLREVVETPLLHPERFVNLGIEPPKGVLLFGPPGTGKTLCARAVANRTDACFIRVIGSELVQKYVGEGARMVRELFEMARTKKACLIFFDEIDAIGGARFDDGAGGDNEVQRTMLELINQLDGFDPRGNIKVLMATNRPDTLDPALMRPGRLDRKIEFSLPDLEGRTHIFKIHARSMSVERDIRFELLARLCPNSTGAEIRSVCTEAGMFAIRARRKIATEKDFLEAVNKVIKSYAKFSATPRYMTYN
Described as above. On the procedure:
as §1, §2

Another test concerns the target T6, PSMB4 (human, UniProt P28070 46-264).
T6 construct: also called NP_002787.2
Described as above. As to the method:
as §1, §2

In the next test the target is T7, ERP29 (human, UniProt P30040 33-261).
T7 construct: also called NP_006808.1
The test is described as above. On the procedure: as §1, §2

The next test addresses RPS12 (human, UniProt P25398 2-132). The experiment in a line: co-IP/MS, anti-FLAG IP of C-FLAG B3GNT2 cell lysate. On the procedure:
as §1, §2

A further test concerns the target RPS7 (human, UniProt P62081 1-194). The test is described as above. As to the method: as §1, §2
Another test addresses T8, PIP (human, UniProt P12273 29-146).
T8 construct: also called NP_002643.1
T8 sequence (looked up): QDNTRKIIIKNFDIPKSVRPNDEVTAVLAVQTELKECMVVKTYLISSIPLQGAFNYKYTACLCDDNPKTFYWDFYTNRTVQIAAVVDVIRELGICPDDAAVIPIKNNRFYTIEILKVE
The description is as above. As to the method:
as §1, §2

A further test addresses T9, TGM3 (human, UniProt Q08188 2-693, limits assumed).
T9 construct: also called NP_003236.3
T9 sequence (looked up): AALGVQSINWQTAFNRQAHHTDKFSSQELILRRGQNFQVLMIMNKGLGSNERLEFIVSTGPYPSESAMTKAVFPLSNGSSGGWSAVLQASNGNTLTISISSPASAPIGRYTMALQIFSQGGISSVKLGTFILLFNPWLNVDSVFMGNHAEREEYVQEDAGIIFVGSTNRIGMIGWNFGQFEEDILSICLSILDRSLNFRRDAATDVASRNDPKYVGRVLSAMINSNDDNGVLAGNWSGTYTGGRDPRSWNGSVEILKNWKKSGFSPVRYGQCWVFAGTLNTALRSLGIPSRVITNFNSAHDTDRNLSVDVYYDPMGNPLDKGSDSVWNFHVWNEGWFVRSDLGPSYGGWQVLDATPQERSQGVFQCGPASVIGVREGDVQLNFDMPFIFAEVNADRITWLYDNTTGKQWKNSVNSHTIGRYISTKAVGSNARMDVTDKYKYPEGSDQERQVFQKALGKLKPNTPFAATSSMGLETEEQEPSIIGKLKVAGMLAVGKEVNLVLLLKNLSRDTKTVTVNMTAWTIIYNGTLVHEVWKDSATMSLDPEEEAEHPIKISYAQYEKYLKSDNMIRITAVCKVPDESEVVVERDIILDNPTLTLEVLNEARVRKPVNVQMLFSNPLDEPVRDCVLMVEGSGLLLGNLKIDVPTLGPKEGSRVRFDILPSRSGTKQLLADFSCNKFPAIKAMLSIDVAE
Described as above. On the procedure:
as §1, §2

The target of another test is T10, LRP1 (human, UniProt Q07954 20-4544, limits assumed).
T10 construct: also called NP_002323.2 (+1)
The description is as above. As to the method: as §1, §2

A further test deals with CAPZA1 (human, UniProt P52907 2-286). The description is as above. On the procedure:
as §1, §2

For a further test, the target named is T11, PCBP1 (human, UniProt Q15365 1-356).
T11 construct: also called NP_006187.2
T11 sequence (Q15365 whole entry): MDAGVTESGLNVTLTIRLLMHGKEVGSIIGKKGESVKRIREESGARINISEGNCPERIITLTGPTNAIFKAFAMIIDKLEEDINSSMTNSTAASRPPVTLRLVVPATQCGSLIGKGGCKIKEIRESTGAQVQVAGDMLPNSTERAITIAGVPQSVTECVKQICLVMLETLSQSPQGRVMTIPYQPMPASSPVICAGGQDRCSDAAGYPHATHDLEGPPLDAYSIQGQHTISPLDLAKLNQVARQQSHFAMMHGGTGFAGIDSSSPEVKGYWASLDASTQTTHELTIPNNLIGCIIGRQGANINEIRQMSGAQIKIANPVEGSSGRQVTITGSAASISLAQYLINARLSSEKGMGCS
Described as above. As to the method:
as §1, §2

T6 sequence (P28070 46-264 limits assumed): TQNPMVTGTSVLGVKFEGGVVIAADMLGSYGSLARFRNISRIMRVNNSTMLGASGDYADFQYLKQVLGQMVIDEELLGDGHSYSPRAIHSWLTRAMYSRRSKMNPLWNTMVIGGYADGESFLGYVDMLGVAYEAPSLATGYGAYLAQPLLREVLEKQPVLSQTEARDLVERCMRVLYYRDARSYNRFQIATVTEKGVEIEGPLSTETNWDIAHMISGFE
T3 sequence (Q96AY3 27-582 limits assumed): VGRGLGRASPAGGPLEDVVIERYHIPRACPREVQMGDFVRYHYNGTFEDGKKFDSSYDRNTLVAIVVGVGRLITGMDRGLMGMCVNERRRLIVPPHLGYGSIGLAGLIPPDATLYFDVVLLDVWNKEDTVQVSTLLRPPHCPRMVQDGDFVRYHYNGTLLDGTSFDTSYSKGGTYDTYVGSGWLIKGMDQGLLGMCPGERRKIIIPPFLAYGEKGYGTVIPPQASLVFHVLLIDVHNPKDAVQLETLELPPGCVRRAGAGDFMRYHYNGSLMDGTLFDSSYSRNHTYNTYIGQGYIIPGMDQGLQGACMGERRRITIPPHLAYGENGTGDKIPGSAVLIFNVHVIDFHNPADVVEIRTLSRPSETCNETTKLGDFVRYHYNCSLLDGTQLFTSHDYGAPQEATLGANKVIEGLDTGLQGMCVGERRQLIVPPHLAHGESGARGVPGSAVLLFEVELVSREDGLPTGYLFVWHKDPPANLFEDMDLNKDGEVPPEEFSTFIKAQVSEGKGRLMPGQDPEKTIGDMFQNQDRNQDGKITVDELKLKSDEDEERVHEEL

B1: N-terminal FLAG tagged B3GNT2 (enzyme, human, UniProt Q9NY97 1-397, looked up)
chain: MSVGRRRIKLLGILMMANVFIYFIMEVSKSSSQEKNGKGEVIIPKEKFWKISTPPEAYWNREQEKLNRQYNPILSMLTNQTGEAGRLSNISHLNYCEPDLRVTSVVTGFNNLPDRFKDFLLYLRCRNYSLLIDQPDKCAKKPFLLLAIKSLTPHFARRQAIRESWGQESNAGNQTVVRVFLLGQTPPEDNHPDLSDMLKFESEKHQDILMWNYRDTFFNLSLKEVLFLRWVSTSCPDTEFVFKGDDDVFVNTHHILNYLNSLSKTKAKDLFIGDVIHNAGPHRDKKLKYYIPEVVYSGLYPPYAGGGGFLYSGHLALRLYHITDQVHLYPIDDVYTGMCLQKLGLVPEKHKGFRTFDIEEKNKNNICSYVDLMLVHSRKPQEMIDIWSQLQSAHLKC
notes: FLAG-tagged ORF overexpressed in cells; bait of the co-IP, pulled down with mouse anti-FLAG; also called N-FLAG B3GNT2; N-term FLAG; not shown: N-terminal FLAG tag
Turning to B1, the “co-IP mass spectrometry count” value with RPS3A stood at 12; in the test with RPL14 it was 11; with PRDX2, 9; with RPL30, 8; in the test with PRDX1, 8; in the test with RPS15, 7. Moreover, the “co-IP mass spectrometry count” value amounted to 2 with RPS9, 0 with FKBP10, 4 in the test with RPL24 and 4 with RPS5.

B2: C-terminal FLAG tagged B3GNT2 (enzyme, human, UniProt Q9NY97 1-397, looked up)
chain: MSVGRRRIKLLGILMMANVFIYFIMEVSKSSSQEKNGKGEVIIPKEKFWKISTPPEAYWNREQEKLNRQYNPILSMLTNQTGEAGRLSNISHLNYCEPDLRVTSVVTGFNNLPDRFKDFLLYLRCRNYSLLIDQPDKCAKKPFLLLAIKSLTPHFARRQAIRESWGQESNAGNQTVVRVFLLGQTPPEDNHPDLSDMLKFESEKHQDILMWNYRDTFFNLSLKEVLFLRWVSTSCPDTEFVFKGDDDVFVNTHHILNYLNSLSKTKAKDLFIGDVIHNAGPHRDKKLKYYIPEVVYSGLYPPYAGGGGFLYSGHLALRLYHITDQVHLYPIDDVYTGMCLQKLGLVPEKHKGFRTFDIEEKNKNNICSYVDLMLVHSRKPQEMIDIWSQLQSAHLKC
notes: Bait of the co-IP; pulled down from cell lysate with mouse anti-FLAG antibody; also called C-FLAG B3GNT2; C-term flag; not shown: C-terminal FLAG tag
As for B2, the “co-IP mass spectrometry count” value with PSMA5, in the test with PSMC2, with PSMB4 and with ERP29 was 0 each time.

B3: C-terminal FLAG tagged B3GNT2 (enzyme, human, UniProt Q9NY97 1-397, looked up)
chain: MSVGRRRIKLLGILMMANVFIYFIMEVSKSSSQEKNGKGEVIIPKEKFWKISTPPEAYWNREQEKLNRQYNPILSMLTNQTGEAGRLSNISHLNYCEPDLRVTSVVTGFNNLPDRFKDFLLYLRCRNYSLLIDQPDKCAKKPFLLLAIKSLTPHFARRQAIRESWGQESNAGNQTVVRVFLLGQTPPEDNHPDLSDMLKFESEKHQDILMWNYRDTFFNLSLKEVLFLRWVSTSCPDTEFVFKGDDDVFVNTHHILNYLNSLSKTKAKDLFIGDVIHNAGPHRDKKLKYYIPEVVYSGLYPPYAGGGGFLYSGHLALRLYHITDQVHLYPIDDVYTGMCLQKLGLVPEKHKGFRTFDIEEKNKNNICSYVDLMLVHSRKPQEMIDIWSQLQSAHLKC
notes: FLAG-tagged ORF overexpressed in cells; bait of the co-IP, pulled down with mouse anti-FLAG; also called C-FLAG B3GNT2; C-term flag; not shown: C-terminal FLAG tag
B3: the “co-IP mass spectrometry count” value is 8 with RPS12; 8 in the test with RPS7; 3 in the test with PIP; 5 with TGM3; 0 with LRP1; 0 with CAPZA1. The “co-IP mass spectrometry count” value with PCBP1 stood at 4.
